Laboratory results as given in patent US20240409645A1 (DUALYX, published 2024).
Where a chain is given by its changes, count along the chain named.

B1: 4-MP01F04 (VHH)
VHH: QVQLVESGGGLVQAGGSLRLSCAASGGTFRTRNMGWFRRAPGKEREFVAAVSWNVDNKLYADSVKGRFTISRDNGRNMVYLQMNSLKPEDTAVYYCAADNIPLSSDMRPTATEYDYWGQGTQVTVSS
notes: periplasmic extract; also called FJ1427_P035MP01F04
B2: FJ1427_P035MP01C11 (VHH)
VHH: B1 VHH with D62G
notes: periplasmic extract; also called clone nr; 83
B3: FJ1427_P035MP05E04 (VHH)
VHH: B1 VHH with N54S, D62G, Y114F, D115G, Q122R
notes: periplasmic extract; also called clone nr
B4: FJ1427_P035MP05A05 (VHH)
VHH: QLQLVESGGGLVQAGGSLRLSCAASGLTFDGYAIGWFRQASGKEREGVSYINGRDGSTFYADSVKGRFIISSDNAKNTVDLQMNSLKPDDAAVYYCAVDRLGSRGAYVSTWWRPPDMDLWGKGTLVTVSP
notes: periplasmic extract; also called clone nr; 417
B5: FJ1427_P035MP05H08 (VHH)
VHH: B4 VHH with P114S, P130S
notes: as for B3
B6: FJ1427_P035MP05C06 (VHH)
VHH: B4 VHH with L2V, A61T, T110S, P114S, P130S
notes: as for B3
B7: FJ1427_P035MP05D04 (VHH)
VHH: B4 VHH with K87N, T110S, P114S, P130S
notes: as for B3
B8: FJ1427_P035MP05C09 (VHH)
VHH: QLQLVESGGGLVQAGGSLRLSCAASGFTFDGYAIGWFRQAPGKEREGVSYITGSDGSTYYADSVKGRFTISSNNAKNTVYLHMNSLKPDDAAVYYCAIDRLGSRGAYVPIWWRSSDMDLWGKGTLVTVSS
notes: as for B3
B9: FJ1427_P035MP05B08 (VHH)
VHH: QLQLVESGGGLVQAGGSLRLSCVAHGLTFDGYAIGWFRQAPGKELEGVSYITGSDGSRYYADSVKGRFTISSDVAKNTVYLHMNNLKPDDAARYYCAVDRLGSRGAYVSAWWRSSDMDLWGKGTLVTVSS
notes: as for B3
B10: FJ1427_P035MP05C10 (VHH)
VHH: B8 VHH with A14T, A23S, A24T, R45P, N73D, R104G
notes: as for B3
B11: 12-MP05B12 (VHH)
VHH: B8 VHH with L2V
notes: periplasmic extract; also called FJ1427_P035MP05B12
B12: 9-MP05G01 (VHH)
VHH: EVQLVESGGGLVQAGGSLRLSCAASGGSIYTYNMGWFRQAPGKEREFVAGTLWSGGDSVYADFAKGRFTLSRENAKNTLYLQMNSLKPEDTATYYCAIDPLSLTSDWRVDELSSWGKGTLVTVSS
notes: periplasmic extract; also called FJ1427_P035MP05G01
B13: FJ1427_P035MP05A10 (VHH)
VHH: QLQLVESGGGLVQAGGSLRLSCTASGLTFDGYAIGWFRQAPGKEREGVSYITGSDGSTYYIDSVKGRFTISSDIAKSTVYLQMNSLKPEDTAVYYCAVDRLGSRGLYASSWWRSGDMDLWGKGTLVTVSS
notes: as for B3
B14: 11-MP05H04 (VHH)
VHH: B13 VHH with T23A, D30E, S57T, D62N, I74N, S85T, R104Q, L106R, S110A, L125Q
notes: periplasmic extract; also called FJ1427_P035MP05H04
B15: FJ1427_P035MP05D10 (VHH)
VHH: B13 VHH with L2V, I61R, I74N, S85T
notes: periplasmic extract; also called clone nr; 460
B16: FJ1427_P035MP05E10 (VHH)
VHH: B13 VHH with Q1E, L2V
notes: as for B3
B17: FJ1427_P035MP05C11 (VHH)
VHH: B13 VHH with L2V, D30E, G56A, I74F, S85N, L106G
notes: as for B3
B18: FJ1427_P035MP05G08 (VHH)
VHH: B13 VHH with D30E, G56A, I74F, S85N, L106G
notes: as for B3
B19: FJ1427_P035MP05H09 (VHH)
VHH: B13 VHH with G10D, A14P, D55N, S85T
notes: as for B3
B20: FJ1427_P035MP05B05 (VHH)
VHH: EVQLVESGGGLVQAGGSLRLSCAASGFTFDGYAVGWFRQAPGKEPEGVSYITGSDGVTYYIDSVKGRFTISSDNAKRTVYLQMNTLKPEDTAVYYCAVDRLGSQGRYASSWWRAGDMDFWGKGTLVTVSS
notes: as for B3
B21: 20-MP03F10 VHH-hFc, monospecific bivalent (Fc fusion)
chain: EVQLVESGGGLVQAGGSLRLSCAASGRDFSSYAMGWFRQAPGKEREFVVAITWTKRSTDFPDSVKGRFTISRDNAKNTVYLDMNSLKPEDTAVYYCASARGLPVTPLGDIIYWGEGTLVTVSS
notes: IgG1 Fc LALA-PG; not shown: human IgG1 CH2 and CH3 domains (Fc)

Molecular target: T1, human IL-2Rα (human, UniProt P01589 22-240, limits assumed)
T1 construct: recombinant protein; also called hu IL-2R; human IL-2Ra
T1 sequence: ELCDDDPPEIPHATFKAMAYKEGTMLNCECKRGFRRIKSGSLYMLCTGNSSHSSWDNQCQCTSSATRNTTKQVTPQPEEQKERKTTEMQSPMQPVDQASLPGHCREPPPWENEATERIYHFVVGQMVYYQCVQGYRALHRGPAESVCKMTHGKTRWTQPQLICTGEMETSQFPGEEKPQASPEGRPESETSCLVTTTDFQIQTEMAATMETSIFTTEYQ
Test: ELISA, P.E. on coated antigen
Procedure: (§1) In a binding ELISA, human or mouse IL-2Rα, IL-2Rβ and IL-2Rγ proteins were coated directly on maxisorp microtiter plates overnight at 4° C. Free binding sites were blocked using 4% Marvel in PBS for 1 hour. Next, 1:5 dilution of P.E. in 1% Marvel/PBS were added to wells and incubated for 1 hour. […] Binding specificity was determined based on O.D. at 450 nm values compared to negative controls.

Binder	OD (PE binding ELISA)
B1	2.49 OD450 nm
B2	2.78 OD450 nm
B3	2.38 OD450 nm
B4	1.86 OD450 nm
B5	2.17 OD450 nm
B6	2.43 OD450 nm
B7	1.91 OD450 nm
B8	0.366 OD450 nm
B9	1.88 OD450 nm
B10	0.63 OD450 nm
B11	2.14 OD450 nm
B12	2.35 OD450 nm
B13	2.18 OD450 nm
B14	2.22 OD450 nm
B15	2.09 OD450 nm
B16	2.27 OD450 nm
B17	2.14 OD450 nm
B18	2.39 OD450 nm
B19	2.26 OD450 nm
B20	2.15 OD450 nm

Molecular target: T2, mouse IL-2Rα (mouse, UniProt P01590 22-236, limits assumed)
T2 construct: recombinant protein; also called mo IL-2R; mouse IL-2Ra
T2 sequence (looked up): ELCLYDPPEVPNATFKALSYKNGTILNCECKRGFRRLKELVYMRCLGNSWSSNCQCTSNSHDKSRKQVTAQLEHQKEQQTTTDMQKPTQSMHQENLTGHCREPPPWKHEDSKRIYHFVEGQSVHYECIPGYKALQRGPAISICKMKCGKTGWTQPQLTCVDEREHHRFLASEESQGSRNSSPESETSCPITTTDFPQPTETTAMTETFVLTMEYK
Test: ELISA, P.E. on coated antigen
Procedure: as §1

Binder	OD (PE binding ELISA)
B1	0.046 OD450 nm
B2	0.045 OD450 nm
B3	0.046 OD450 nm
B4	0.052 OD450 nm
B5	0.05 OD450 nm
B6	0.071 OD450 nm
B7	0.045 OD450 nm
B8	0.059 OD450 nm
B9	0.057 OD450 nm
B10	0.071 OD450 nm
B11	0.936 OD450 nm
B12	0.047 OD450 nm
B13	0.24 OD450 nm
B14	0.163 OD450 nm
B15	0.107 OD450 nm
B16	0.718 OD450 nm
B17	0.632 OD450 nm
B18	0.38 OD450 nm
B19	0.154 OD450 nm
B20	0.045 OD450 nm

Molecular target: T1, human IL-2Rα
Test: SPR, P.E. on immobilised antigen
Procedure: (§2) SPR was performed to determine dissociation rates using Biacore 3000 instrument (GE Healthcare). Briefly, human and mouse IL-2R proteins were immobilized on carboxylmethyl dextran sensor chip (CM5) at approximately 2500 RUs using amine coupling in acetate buffer (GE Healthcare). The VHH-containing P.E. were loaded with a flow rate of 30 uL/min and the off-rates were measured over a 120s period.

Binder	koff
B1	0.000258 s⁻¹
B2	0.000556 s⁻¹
B3	0.00158 s⁻¹
B4	0.00341 s⁻¹
B5	0.00278 s⁻¹
B6	0.000659 s⁻¹
B7	0.00224 s⁻¹
B8	0.00609 s⁻¹
B9	0.00253 s⁻¹
B10	0.00406 s⁻¹
B11	0.000222 s⁻¹
B12	0.000169 s⁻¹
B13	0.0012 s⁻¹
B14	0.0012 s⁻¹
B15	0.00108 s⁻¹
B16	0.00169 s⁻¹
B17	0.00044 s⁻¹
B18	0.000908 s⁻¹
B19	0.00105 s⁻¹
B20	0.00103 s⁻¹

Molecular target: T2, mouse IL-2Rα
Test: SPR, P.E. on immobilised antigen
Procedure: as §2

Binder	koff
B1	0.256 s⁻¹
B2	0.351 s⁻¹
B3	0.196 s⁻¹
B4	0.0172 s⁻¹
B5	0.0129 s⁻¹
B6	0.00311 s⁻¹
B7	0.0122 s⁻¹
B8	0.00435 s⁻¹
B9	0.00608 s⁻¹
B10	0.00403 s⁻¹
B11	0.000547 s⁻¹
B12	0.0442 s⁻¹
B13	0.00321 s⁻¹
B14	0.00163 s⁻¹
B15	0.00284 s⁻¹
B16	0.00177 s⁻¹
B17	0.000844 s⁻¹
B18	0.00258 s⁻¹
B19	0.00244 s⁻¹
B20	0.0114 s⁻¹

Molecular target: T3, human interleukin-2 receptor β-chain (IL-2Rβ; CD122), recombinant protein (human, UniProt P14784 27-240)
T3 construct: also called human IL-2R subunit CD122
T3 sequence: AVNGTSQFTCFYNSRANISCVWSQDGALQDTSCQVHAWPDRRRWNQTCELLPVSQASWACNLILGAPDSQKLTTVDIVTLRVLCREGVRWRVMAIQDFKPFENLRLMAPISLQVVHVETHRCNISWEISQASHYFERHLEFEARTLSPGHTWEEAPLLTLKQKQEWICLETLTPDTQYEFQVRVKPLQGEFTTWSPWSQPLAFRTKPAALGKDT
Test: ELISA, bivalent VHH-hFc
Procedure: (§3) Monospecific monovalent and bivalent IL-2Rα-, IL-2Rβ- and IL-2Rγ-specific antibodies that were selected on human IL-2R subunits, were evaluated for their cross-reactivity in an ELISA. Human and cynomolgus monkey receptor subunits (Acrobiosystems, KactusBiosystems) were coated at 1 μg/mL in PBS (pH 7.4) in a Maxisorp plate (Nunc) and incubated overnight at 4° C. The plates were further washed with PBS-Tween pH 7.4 and incubated with 1% cascin/PBS-Tween blocking solution for 1 hour shaking at 400 rpm. Subsequently, the plate was washed three times with PBS-Tween pH 7.4, after which the test antibodies diluted in 0.1% casein/PBS-Tween were added to the plate and incubated for 1 hour. The plate was again washed three times, after which goat anti-human IgG Fc (HRP) detection antibody (abcam) was added to the plate and incubated for 30 min. The colouring reaction was performed with TMB (Sigma-Aldrich) and stopped with 0.5N H₂SO₄.
(§4) Absorbance was measured at 450 nm with the reference wavelength of 620 nm using spectrophotometer. Final analysis and graphic output were performed with GraphPad Prism version 8 (GraphPad Software). The dose-response binding curves were fit to a nonlinear regression model (log (agonist) vs. response with a variable slope (four parameters)).

Binder	EC50
B21	218 pM

Molecular target: T4, cynomolgus monkey IL-2Rβ/CD122 subunit (cynomolgus monkey, UniProt Q38J85 27-239, limits assumed)
T4 construct: also called Cyno IL-2R subunit
T4 sequence (looked up): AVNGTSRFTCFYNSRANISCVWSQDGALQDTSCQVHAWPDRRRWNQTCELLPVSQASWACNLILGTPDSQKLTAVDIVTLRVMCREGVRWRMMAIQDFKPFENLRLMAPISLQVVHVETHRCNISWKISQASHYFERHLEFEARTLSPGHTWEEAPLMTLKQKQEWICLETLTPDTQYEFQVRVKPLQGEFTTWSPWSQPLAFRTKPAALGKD
Test: ELISA, bivalent VHH-hFc
Procedure: as §3, §4

Binder	binding result
B21	no binding
